Data: the Immune Epitope Database (IEDB)

Columns and labels:
HLA-B*46:01 [1] = test: IEDB peptide-MHC binding, purified MHC/competitive/fluorescence; filed as Kd, often an IC50 or EC50 that approximates it; ≥ and ≤ were set here for values at or beyond the usual limits of such assays
HLA-A*11:01 = test: IEDB peptide-MHC binding, purified MHC/direct/fluorescence; filed as Kd, often an IC50 or EC50 that approximates it; ≥ and ≤ were set here for values at or beyond the usual limits of such assays
HLA-A*03:01 [2] = test: as above
HLA-A*30:01 = test: as above
HLA-B*15:02 = test: as above; settings: source organism: Escherichia coli O157:H7
HLA-B*15:01 [3] = test: as above
HLA-B*46:01 [4] = test: as above; settings: source organism: Escherichia coli O157:H7
HLA-A*29:02 = test: IEDB peptide-MHC binding, purified MHC/competitive/fluorescence; filed as Kd, often an IC50 or EC50 that approximates it; ≥ and ≤ were set here for values at or beyond the usual limits of such assays; settings: source organism: Francisella tularensis subsp. tularensis FSC198
HLA-A*26:01 [5] = test: as above; settings: source organism: Francisella tularensis subsp. tularensis FSC198
HLA-A*02:12 = test: as above; settings: source organism: Francisella tularensis subsp. tularensis FSC198
HLA-B*39:01 = test: as above; settings: source organism: Francisella tularensis subsp. tularensis FSC198
HLA-B*18:01 = test: as above; settings: source organism: Francisella tularensis subsp. tularensis FSC198
HLA-A*02:19 = test: as above; settings: source organism: Francisella tularensis subsp. tularensis FSC198
HLA-A*03:01 [6] = test: as above; settings: source organism: Francisella tularensis subsp. tularensis FSC198
HLA-B*15:01 [7] = test: as above; settings: source organism: Francisella tularensis subsp. tularensis FSC198
HLA-A*02:03 = test: as above; settings: source organism: Francisella tularensis subsp. tularensis FSC198
HLA-B*27:03 = test: as above; settings: source organism: Francisella tularensis subsp. tularensis FSC198
HLA-B*57:01 = test: as above; settings: source organism: Francisella tularensis subsp. tularensis FSC198
HLA-B*51:01 = test: as above; settings: source organism: Francisella tularensis subsp. tularensis FSC198
HLA-A*69:01 = test: IEDB peptide-MHC binding, purified MHC/direct/fluorescence; filed as Kd, often an IC50 or EC50 that approximates it; ≥ and ≤ were set here for values at or beyond the usual limits of such assays
HLA-A*24:03 = test: as above
HLA-B*08:01 = test: as above
HLA-A*26:01 [8] = test: as above
HLA-B*07:02 = test: as above
HLA-A*02:01 = test: as above
HLA-B*40:01 = test: as above
HLA-B*44:02 = test: as above; settings: source organism: Escherichia coli O157:H7
HLA-A*01:01 = test: as above
HLA-B*27:05 = test: as above
HLA-A*31:01 = test: as above
HLA-B*58:01 = test: as above
HLA-B*35:01 [9] = test: as above; settings: source organism: Pseudomonas aeruginosa
HLA-A*68:02 = test: IEDB peptide-MHC binding, purified MHC/competitive/fluorescence; filed as Kd, often an IC50 or EC50 that approximates it; ≥ and ≤ were set here for values at or beyond the usual limits of such assays; settings: source organism: Vibrio cholerae 2740-80
HLA-B*35:01 [10] = test: as above; settings: source organism: West Nile virus
[11] = source organism: Giardia lamblia ATCC 50803
[12] = source organism: Escherichia coli O157:H7
[13] = source organism: Salmonella enterica subsp. enterica serovar Typhimurium
[14] = source organism: Pseudomonas aeruginosa UCBPP-PA14
[15] = source organism: Pseudomonas aeruginosa

Sequence: MLMFITSSH
- Kd (HLA-B*46:01 [1]; [11]): 0.273 µM
- Kd (HLA-A*11:01; [11]): 0.144 µM
- Kd (HLA-A*03:01 [2]; [11]): 0.167 µM
- Kd (HLA-A*30:01; [11]): ≥ 20 µM

Sequence: RMFEKSTHH
- Kd (HLA-B*15:02): 16 µM
- Kd (HLA-B*15:01 [3]; [12]): 0.0751 µM
- Kd (HLA-B*46:01 [4]): ≥ 20 µM

Sequence: RSFPEWDYI
- Kd (HLA-A*29:02): ≥ 20 µM
- Kd (HLA-A*26:01 [5]): ≥ 20 µM
- Kd (HLA-A*02:12): ≥ 20 µM
- Kd (HLA-B*39:01): ≥ 20 µM
- Kd (HLA-B*18:01): ≥ 20 µM
- Kd (HLA-A*02:19): ≥ 20 µM
- Kd (HLA-A*03:01 [6]): ≥ 20 µM
- Kd (HLA-B*15:01 [7]): ≥ 20 µM
- Kd (HLA-A*02:03): ≥ 20 µM
- Kd (HLA-B*27:03): ≥ 20 µM
- Kd (HLA-B*46:01 [1]; source organism: Francisella tularensis subsp. tularensis FSC198): ≥ 20 µM
- Kd (HLA-B*57:01): 0.0979 µM
- Kd (HLA-B*51:01): ≥ 20 µM

Sequence: RVNKGTGVK
- Kd (HLA-A*69:01; [12]): ≥ 20 µM
- Kd (HLA-A*24:03; [13]): 0.437 µM
- Kd (HLA-B*08:01; [12]): ≥ 20 µM
- Kd (HLA-A*26:01 [8]; [12]): ≥ 20 µM
- Kd (HLA-B*07:02; [13]): 12.6 µM
- Kd (HLA-A*02:01; [13]): 1.34 µM
- Kd (HLA-B*40:01; [12]): ≥ 20 µM
- Kd (HLA-B*44:02): ≥ 20 µM
- Kd (HLA-A*01:01; [12]): ≥ 20 µM
- Kd (HLA-A*11:01; [13]): 0.0606 µM
- Kd (HLA-A*03:01 [2]; [13]): 0.359 µM
- Kd (HLA-A*30:01; [13]): 0.00181 µM
- Kd (HLA-B*15:01 [3]; [13]): 4.45 µM
- Kd (HLA-B*27:05; [12]): ≥ 20 µM
- Kd (HLA-A*31:01; [13]): 0.103 µM
- Kd (HLA-B*58:01; [12]): ≥ 20 µM

Sequence: SPADERAVA
- Kd (HLA-B*35:01 [9]): 0.124 µM
- Kd (HLA-A*69:01; [14]): ≥ 20 µM
- Kd (HLA-A*24:03; [14]): ≥ 20 µM
- Kd (HLA-B*08:01; [14]): ≥ 20 µM
- Kd (HLA-A*26:01 [8]; [14]): ≥ 20 µM
- Kd (HLA-B*07:02; [15]): 0.042 µM
- Kd (HLA-A*02:01; [14]): ≥ 20 µM
- Kd (HLA-B*40:01; [14]): ≥ 20 µM
- Kd (HLA-A*01:01; [14]): ≥ 20 µM
- Kd (HLA-A*11:01; [14]): ≥ 20 µM
- Kd (HLA-A*03:01 [2]; [14]): ≥ 20 µM
- Kd (HLA-A*30:01; [15]): 8.23 µM
- Kd (HLA-B*15:01 [3]; [15]): ≥ 5 µM
- Kd (HLA-B*27:05; [14]): ≥ 20 µM
- Kd (HLA-A*31:01; [14]): ≥ 20 µM
- Kd (HLA-B*58:01; [14]): ≥ 20 µM

Sequence: TNPAITSRV
- Kd (HLA-A*68:02): 0.0217 µM

Sequence: WMILRAISF
- Kd (HLA-B*35:01 [10]): 1.28 µM
- Kd (HLA-A*30:01; source organism: West Nile virus SPU116/89): ≥ 20 µM
